The values below come from article PMC9736959, “Enzyme-Linked Aptamer Kits for Rapid, Visual, and Sensitive Determination of Lactoferrin in Dairy Products”.

The target in this data set is lactoferrin (Lf) (bovine (from bovine milk), UniProt P24627 20-708). As to the kind of experiment: competition (indirect competitive enzyme-linked aptamer assay against immobilized cDNA S2); linear 25-500 nM Lf, LOD 14.01 nM (not a Kd); aptamer as SA-HRP conjugate; PBS pH 7.2, about 25 °C; Lf and recognition probe 5 min, then 30 min on cDNA-coated plate; PBS-T (0.05% Tween-20) washes. As to conditions: protein: commercial; label: biotin; coupled to SA-HRP in the recognition probe; capture strand S2 is not an exact complement (fewer G opposite the C run).
Sequence of lactoferrin (Lf) (P24627 20-708): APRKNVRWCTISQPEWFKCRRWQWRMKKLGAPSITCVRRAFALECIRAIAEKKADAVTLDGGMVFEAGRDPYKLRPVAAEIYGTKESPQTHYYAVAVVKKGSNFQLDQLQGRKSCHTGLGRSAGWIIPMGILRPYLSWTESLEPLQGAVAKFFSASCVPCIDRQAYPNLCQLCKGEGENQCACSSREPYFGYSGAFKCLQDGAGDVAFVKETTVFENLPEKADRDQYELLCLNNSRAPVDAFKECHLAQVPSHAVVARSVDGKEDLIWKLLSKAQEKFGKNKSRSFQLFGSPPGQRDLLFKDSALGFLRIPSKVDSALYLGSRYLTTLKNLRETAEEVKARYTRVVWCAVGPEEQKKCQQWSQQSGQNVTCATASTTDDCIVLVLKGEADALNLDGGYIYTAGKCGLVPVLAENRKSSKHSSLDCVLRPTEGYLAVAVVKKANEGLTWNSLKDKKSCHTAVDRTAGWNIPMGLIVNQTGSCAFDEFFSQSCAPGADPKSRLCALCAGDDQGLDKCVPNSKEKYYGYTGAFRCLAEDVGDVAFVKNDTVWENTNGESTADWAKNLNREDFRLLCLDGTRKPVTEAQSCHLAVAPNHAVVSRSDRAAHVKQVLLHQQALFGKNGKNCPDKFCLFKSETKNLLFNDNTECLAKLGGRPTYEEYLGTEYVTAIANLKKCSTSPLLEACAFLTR

B1: Lf aptamer (biotin-Apt) (ssDNA)
DNA: TGGTGCTGCCCCCCTAGTCTCCGGCTGCTTCTTGG
modifications: 5' biotin (so in the source)
On to B1, for which the binding result is listed as “binds”.
